Test results: paper doi:10.1101/2020.07.27.223107 (bioRxiv, 2020)

Biological target: the molecule itself
Assay: SEC-MALLS

| Protein | stoichiometry N |
| --- | --- |
| full-length human SNED1 (Sushi, nidogen and EGF-like domain-containing protein 1), FLAG-tagged (natural protein, UniProt Q8TER0 25-1413, looked up, N-glycosylated; phosphorylated on serine and threonine residues (sites not mapped)) AVALADFYPFGAERGDAVTPKQDDGGSGLRPLSVPFPFFGAEHSGLYVNNNGIISFLKEVSQFTPVAFPIAKDRCVVAAFWADVDNRRAGDVYYREATDPAMLRRATEDVRHYFPELLDFNATWVFVATWYRVTFFGGSSSSPVNTFQTVLITDGKLSFTIFNYESIVWTTGTHASSGGNATGLGGIAAQAGFNAGDGQRYFSIPGSRTADMAEVETTTNVGVPGRWAFRIDDAQVRVGGCGHTTSVCLALRPCLNGGKCIDDCVTGNPSYTCSCLSGFTGRRCHLDVNECASQPCQNGGTCTHGINSFRCQCPAGFGGPTCETAQSPCDTKECQHGGQCQVENGSAVCVCQAGYTGAACEMDVDDCSPDPCLNGGSCVDLVGNYTCLCAEPFKGLRCETGDHPVPDACLSAPCHNGGTCVDADQGYVCECPEGFMGLDCRERVPDDCECRNGGRCLGANTTLCQCPLGFFGLLCEFEITAMPCNMNTQCPDGGYCMEHGGSYLCVCHTDHNASHSLPSPCDSDPCFNGGSCDAHDDSYTCECPRGFHGKHCEKARPHLCSSGPCRNGGTCKEAGGEYHCSCPYRFTGRHCEIGKPDSCASGPCHNGGTCFHYIGKYKCDCPPGFSGRHCEIAPSPCFRSPCVNGGTCEDRDTDFFCHCQAGYMGRRCQAEVDCGPPEEVKHATLRFNGTRLGAVALYACDRGYSLSAPSRIRVCQPHGVWSEPPQCLEIDECRSQPCLHGGSCQDRVAGYLCLCSTGYEGAHCELERDECRAHPCRNGGSCRNLPGAYVCRCPAGFVGVHCETEVDACDSSPCQHGGRCESGGGAYLCVCPESFFGYHCETVSDPCFSSPCGGRGYCLASNGSHSCTCKVGYTGEDCAKELFPPTALKMERVEESGVSISWNPPNGPAARQMLDGYAVTYVSSDGSYRRTDFVDRTRSSHQLQALAAGRAYNISVFSVKRNSNNKNDISRPAVLLARTRPRPVEGFEVTNVTASTISVQWALHRIRHATVSGVRVSIRHPEALRDQATDVDRSVDRFTFRALLPGKRYTIQLTTLSGLRGEEHPTESLATAPTHVWTRPLPPANLTAARVTATSAHVVWDAPTPGSLLEAYVINVTTSQSTKSRYVPNGKLASYTVRDLLPGRRYQLSVIAVQSTELGPQHSEPAHLYIITSPRDGADRRWHQGGHHPRVLKNRPPPARLPELRLLNDHSAPETPTQPPRFSELVDGRGRVSARFGGSPSKAATVRSQPTASAQLENMEEAPKRVSLALQLPEHGSKDIGNVPGNCSENPCQNGGTCVPGADAHSCDCGPGFKGRRCELACIKVSRPCTRLFSETKAFPVWEGGVCHHVYKRVYRVHQDICFKESCESTSLKKTPNRKQSKSQTLEKS | 2 |
| N-terminal fragment of human SNED1 (amino acids 1 to 260, includes the NIDO domain), FLAG-tagged (domain or fragment, UniProt Q8TER0 25-260, looked up, N-glycosylated; phosphorylated on serine and threonine residues (sites not mapped)) AVALADFYPFGAERGDAVTPKQDDGGSGLRPLSVPFPFFGAEHSGLYVNNNGIISFLKEVSQFTPVAFPIAKDRCVVAAFWADVDNRRAGDVYYREATDPAMLRRATEDVRHYFPELLDFNATWVFVATWYRVTFFGGSSSSPVNTFQTVLITDGKLSFTIFNYESIVWTTGTHASSGGNATGLGGIAAQAGFNAGDGQRYFSIPGSRTADMAEVETTTNVGVPGRWAFRIDDAQV | 2 |
